What was measured:
[1] = substrate: O=C(O)CN(CC(=O)O)Cc1cc2c(cc1O)Oc1cc(O)c(CN(CC(=O)O)CC(=O)O)cc1C21OC(=O)c2ccccc21; assay: (§1) TP_TRANSPORTER: efflux in GLC4/ADR cells; type: functional, cell-based, GLC-4/ADR
[2] = substrate: CC(=O)OCOC(=O)CN(CC(=O)OCOC(C)=O)Cc1c(OC(C)=O)ccc2c1Oc1c(ccc(OC(C)=O)c1CN(CC(=O)OCOC(C)=O)CC(=O)OCOC(C)=O)C21OC(=O)c2ccccc21; assay: as §1; type: functional, cell-based, GLC-4/ADR

B1: Multidrug resistance-associated protein 1 (Homo sapiens) (protein)
chain: MALRGFCSADGSDPLWDWNVTWNTSNPDFTKCFQNTVLVWVPCFYLWACFPFYFLYLSRHDRGYIQMTPLNKTKTALGFLLWIVCWADLFYSFWERSRGIFLAPVFLVSPTLLGITMLLATFLIQLERRKGVQSSGIMLTFWLVALVCALAILRSKIMTALKEDAQVDLFRDITFYVYFSLLLIQLVLSCFSDRSPLFSETIHDPNPCPESSASFLSRITFWWITGLIVRGYRQPLEGSDLWSLNKEDTSEQVVPVLVKNWKKECAKTRKQPVKVVYSSKDPAQPKESSKVDANEEVEALIVKSPQKEWNPSLFKVLYKTFGPYFLMSFFFKAIHDLMMFSGPQILKLLIKFVNDTKAPDWQGYFYTVLLFVTACLQTLVLHQYFHICFVSGMRIKTAVIGAVYRKALVITNSARKSSTVGEIVNLMSVDAQRFMDLATYINMIWSAPLQVILALYLLWLNLGPSVLAGVAVMVLMVPVNAVMAMKTKTYQVAHMKSKDNRIKLMNEILNGIKVLKLYAWELAFKDKVLAIRQEELKVLKKSAYLSAVGTFTWVCTPFLVALCTFAVYVTIDENNILDAQTAFVSLALFNILRFPLNILPMVISSIVQASVSLKRLRIFLSHEELEPDSIERRPVKDGGGTNSITVRNATFTWARSDPPTLNGITFSIPEGALVAVVGQVGCGKSSLLSALLAEMDKVEGHVAIKGSVAYVPQQAWIQNDSLRENILFGCQLEEPYYRSVIQACALLPDLEILPSGDRTEIGEKGVNLSGGQKQRVSLARAVYSNADIYLFDDPLSAVDAHVGKHIFENVIGPKGMLKNKTRILVTHSMSYLPQVDVIIVMSGGKISEMGSYQELLARDGAFAEFLRTYASTEQEQDAEENGVTGVSGPGKEAKQMENGMLVTDSAGKQLQRQLSSSSSYSGDISRHHNSTAELQKAEAKKEETWKLMEADKAQTGQVKLSVYWDYMKAIGLFISFLSIFLFMCNHVSALASNYWLSLWTDDPIVNGTQEHTKVRLSVYGALGISQGIAVFGYSMAVSIGGILASRCLHVDLLHSILRSPMSFFERTPSGNLVNRFSKELDTVDSMIPEVIKMFMGSLFNVIGACIVILLATPIAAIIIPPLGLIYFFVQRFYVASSRQLKRLESVSRSPVYSHFNETLLGVSVIRAFEEQERFIHQSDLKVDENQKAYYPSIVANRWLAVRLECVGNCIVLFAALFAVISRHSLSAGLVGLSVSYSLQVTTYLNWLVRMSSEMETNIVAVERLKEYSETEKEAPWQIQETAPPSSWPQVGRVEFRNYCLRYREDLDFVLRHINVTINGGEKVGIVGRTGAGKSSLTLGLFRINESAEGEIIIDGINIAKIGLHDLRFKITIIPQDPVLFSGSLRMNLDPFSQYSDEEVWTSLELAHLKDFVSALPDKLDHECAEGGENLSVGQRQLVCLARALLRKTKILVLDEATAAVDLETDDLIQSTIRTQFEDCTVLTIAHRLNTIMDYTRVIVLDKGEIQEYGAPSDLLQQRGLFYSMAKDAGLV
[1]
  Km: 268 µM
[2]
  Km: 0.05 µM
